The values that follow come from patent US20260055194A1 (LYCIA THERAPEUTICS, published 2026).

Test [1] addresses human CI-M6PR on K562 cells (human, UniProt P11717 41-2491). The test is described as follows: cell-based or functional assay.
The target in test [2] is T1, purified recombinant CI-M6PR (domains 1-9) protein (human, UniProt P11717 41-1365, limits assumed).
T1 construct: domain: domains 1-9; also called human CI-M6PR; wild-type human CI-M6PR
The test is described as follows: BLI (GatorPrime), antibody on anti-mouse IgG Fc sensor, CI-M6PR (domains 1-9) in solution, global 1:1 fit.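 Also: human CI-M6PR tested at a range of concentrations against captured antibodies, measured at 30 °C, analyte diluted in PBS carrying Tween-20, BSA and NaN3.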

The target of test [3] is T1, purified recombinant CI-M6PR (domains …). The test is described as follows: ELISA on human M6PR, Abs 450nm, antibody about 0.0005-1 ug/mL. A general note: ELISA stands for enzyme-linked immunosorbent assay.
Test [4] deals with T2, Recombinant human M6PR ECD-His (human, UniProt P11717 41-2304).
T2 construct: extracellular domain; also called recombinant His-tagged human M6PR; human M6PR antigen; not shown: His tag
As to the kind of experiment: Octet BLI; mIgG from hybridoma supernatant on anti-mouse biosensor, His-tagged human M6PR analyte. Background: BLI is a label-free optical method that tracks binding on a fibre tip over time.

As a reminder, the Kd is the constant that tells how readily two partners part at equilibrium. By koff is commonly meant a measure of how fast the partners let go of each other. As usually defined, the kon is the rate constant with which the complex forms. The EC50 (read off the curve) is the concentration giving half of the maximal effect.

B1: 03C7 (antibody, V domains shown)
VH: QVQLQQSGPELVKPGASVKISCKASGYSFTSYYIHWVKQRPGQGLEWIGWIYPGSGNTKYNEKFKGKATLTADTSSSTAYMQLSSLTSEDSAVYYCARMGSSYWYFDVWGTGTTVTVSS
VL: ENVLTQSPAIMAASLGQKVTMTCSASSSVSSSYLHWYQQKSGASPKPLIHRTSNLASGVPARFSGSGSGTSYSLTISSVEAEDDATYYCQQWSGYPLTFGAGTKLELK
notes: also called Clone # 85
Turning to B1, the “Uptake pHrodo (MFI)” value in test [1] was 41700 MFI. In addition, in test [2], the Kd is 24.9 nM, the koff was found to be 0.0154 s⁻¹ and the kon amounted to 618000 M⁻¹ s⁻¹. Moreover, the “EC50 (read off the curve)” value in test [3] was around 0.01 µg/mL. In addition, the Kd in test [4] turned out to be 17.5 nM.
